Data on one protein can be found in article PMC3431356, “Staphylococcus aureus Methicillin-Resistance Factor fmtA Is Regulated by the Global Regulator SarA” (PLoS ONE, 2012).

This series concerns the molecule itself. The series is described as follows: SEC; Superdex 75 (10/300) column, 50 mM sodium phosphate pH 7.0, 0.4 mL/min, calibrated with four standards (LMW calibration kit); mass estimated from elution.

B1: staphylococcal accessory regulator A (SarA) (natural protein)
chain: MAITKINDCFELLSMVTYADKLKSLIKKEFSISFEEFAVLTYISENKEKEYYLKDIINHLNYKQPQVVKAVKILSQEDYFDKKRNEHDERTVLILVNAQQRKKIESLLSRVNKRITEANNEIEL
notes: SarA, Staphylococcus aureus strain MRSA252; the 375 bp sarA coding region cloned in pET22b with the pelB leader removed; a 124-residue protein; the entry of strain MRSA252 is not recalled; No tag is described; The reverse primer appears to carry stop codons before the HindIII site, so the His tag of pET22b is probably not on the protein (surmise); Observed mass 14,635 D, theoretical mass 14,586 …
The stoichiometry N is a count of units in the complex or per binding partner. Take B1: the “stoichiometry N” value is 2.
